Experimental data taken from patent US20020115110A1 (GlaxoSmithKline, published 2002).

Key:
[1] = target: T1, TR1Fc (human, UniProt O00300 22-401, limits assumed); test: SPR (BIAcore 2000), Fc fusion captured on immobilized protein A, ligand injected
T1 construct: also called TR1 Fc fusion protein; TR1 (osteoprotegerin, OPG) fused to hinge-CH2-CH3 of human IgG1
T1 sequence: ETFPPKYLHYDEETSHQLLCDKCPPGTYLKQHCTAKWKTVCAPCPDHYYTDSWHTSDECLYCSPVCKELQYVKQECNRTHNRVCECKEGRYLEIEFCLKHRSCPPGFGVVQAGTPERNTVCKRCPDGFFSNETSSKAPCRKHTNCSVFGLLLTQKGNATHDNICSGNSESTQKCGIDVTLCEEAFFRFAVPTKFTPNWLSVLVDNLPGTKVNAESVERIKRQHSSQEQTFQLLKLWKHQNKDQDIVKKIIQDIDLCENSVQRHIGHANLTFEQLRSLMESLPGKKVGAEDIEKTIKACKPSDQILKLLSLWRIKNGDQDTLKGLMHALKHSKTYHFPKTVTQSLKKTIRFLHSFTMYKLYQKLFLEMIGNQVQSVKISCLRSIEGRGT
Description: (§1) Surface plasmon resonance. Protein A was immobilized on to a research grade carboxymethyldextran chip (CM5) using amin coupling procedures described previously (4). Flow cell 1 was activated with NHS/EDC for 5 min. Protein A was injected a a concentration of 1 ug/ml in NaOAc buffer (10 mM, pH 5.0) until 1000RUs of protein were coupled. Remaining activated groups were blocked with a 7 min injection of 1M ethanolamine. A control surface was created by repeating the coupling procedure in a flow cell2 without incorporating protein A. In a BIAcore 2000 biosensor (BIAcore Inc. Uppsala, Sweden) TR1Fc or TR2Fc were then injected at a flow rate of 100 ul/min followed by injection of TL2 or TL4, and the binding to receptor monitored by chances in surface plasmon resonance relative to the control chip. In these experiments, TR1Fc bound to TL2 but not TL4 and TR2Fc bound to TL4 but not TL2.

[2] = target: T2, sTL2 (Homo sapiens (Human), UniProt P50591 97-281); test: as above
T2 construct: also called soluble TL2; TRAIL
Description: as §1

T2 sequence (P50591 97-281): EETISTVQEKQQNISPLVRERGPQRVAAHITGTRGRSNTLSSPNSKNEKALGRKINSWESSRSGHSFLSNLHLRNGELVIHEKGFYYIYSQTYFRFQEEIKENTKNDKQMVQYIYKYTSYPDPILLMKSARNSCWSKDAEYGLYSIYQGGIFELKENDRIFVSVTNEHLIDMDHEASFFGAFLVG

B1: sTL4 (ligand, not shown: small tags and cut ends)
chain: HHHHHHSDDDDKQERRSHEVNPAAHLTGANSSLTGSGGPLLWETQLGLAFLRGLSYHDGALVVTKAGYYYIYSKVQLGGVGCPLGLASTITHGLYKRTPRYPEELELLVSQQSPCGRATSSSRVWWDSSFLGGVVHLEAGEKVVVRVLDERLVRLRDGTRSYFGAFMV
notes: also called soluble TL4
binding result [1]: no binding

B2: TR2Fc (Fc fusion, not shown: a dimerising Fc or GST)
chain: LPFCKEDEYPVGSECCPKCSPGYRVKEACGELTGTVCEPCPPGTYIAHLNGLSKCLQCQMCDPAMGLRASRNCSRTENAVCGCSPGHFCIVQDGDHCAACRAYATSSPGQRVQKGGTESQDTLCQNCPPGTFSPNGTLEECQHQTKCSWLVTKARSIEGRGT
notes: Secreted from mammalian cells as a dimer and purified on protein A. Residues 1-192 include the putative leader peptide, which is removed on secretion; also called TR2 (HVEM) extracellular domain fused to hinge-CH2-CH3 of human IgG1; product of plasmid TR2Fclink
binding result [2]: no binding
